# Test results published in patent US20220409512A1, “ORAL CARE COMPOSITIONS FOR GUM HEALTH” (The Procter & Gamble Company, priority 2020, published 2022).
# How the values were obtained:
# [1] = test system: Primary Human Gingival Fibroblasts; experiment: In-Vitro Human Gingival Fibroblasts Soluble Collagen Assay; assay type: cell-based; details: 72 hours
# Description: Stage 1: Culturing Primary Human Gingival Fibroblasts (“HGF”): Primary Human Gingival Fibroblasts (“HGF”) were collected from tooth extraction patients and washed with 5 mL of PBS (phosphate buffered saline). The tissues were chopped into small pieces and placed into 15 mL centrifuge tube. The samples were digested with equal amounts of 1 mL 8% dispase and 1 mL 6% collagenase for 1 hr at 37° C., during which time the samples need to be shaken every 15 minutes. Once the digestion process was complete, the tube was centrifuged at 1100 r.p.m. for 6 minutes at room temperature. After centrifugation, a pellet of cells was formed in the bottom of the tube separating them from the supernatant solution. […] The petri dish with cells were placed in the incubator at 37° C. with 5% CO2 for about 10 days. The petri dish was checked for changes in medium color every two days. Fresh culture medium was replaced if changes in medium color occurred.
# It was occasionally necessary to tap the petri dish to remove any sticky cells from the petri dish surface. At least 1 mL of fresh MEM culture medium was added to inactivate the trypsin and the cells are collected into a 15 mL centrifuge tube. The tube was then centrifuged at 1100 r.p.m. for 6 minutes at room temperature. […] Petri dishes were each placed with 1 mL cell suspension and 9 mL fresh MEM culture medium in the incubator at 37° C. with 5% CO2 for about 3-5 days until 80-90% cell monolayer coverage on the petri dishes was observed. […] 1 mL cell suspension and 1 mL fresh MEM culture medium were respectively added into each well of a 6-well plate. The cells were further washed with 2 mL PBS to remove any suspended cells until no suspended cells are visible. 2 mL culture medium, or 2 mL culture medium containing 1% Comparative Compositions or 2 mL culture medium containing 1% Inventive Compositions were added to the wells. Cells were maintained in the incubator at 37° C. with 5% CO2 for 72 hours.
# After treatment, cells were washed two times with chilled PBS and homogenized with 6M urea. The cell homogenates were centrifuged at 15,000 r.p.m. for 15 min. 100 μL of the supernatant was mixed with 1 mL of Sircol Dye Reagent for 30 minutes. During this time period, a collagen-dye complex formed and precipitated out from the soluble unbound dye. The tubes were transferred to a microcentrifuge and spun at 12,000 r.p.m. for 10 minutes. The tubes were carefully inverted and drained. 750 μL ice-cold Acid-Salt Wash Reagent was gently added to the collagen-dye pellet to remove unbound dye from the surface of the pellet and the inside surface of the microcentrifuge tube. The tube was then centrifuged at 12,000 r.p.m. for 10 minutes. […]
# COL1A1 = experiment: Compound Screening on Skin Dermis, collagen gene expression (microarray); assay type: in vivo, human; details: dorsal forearm twice daily, four weeks, retinol at 0.2%, Pal-KTTKS at 100 ppm, vs vehicle, p-value in brackets
# Text: (§1) To screen compounds, 30 to 40 female subjects with Fitzpatrick skin types I-III, aged 60-70. At Baseline, each subject was assigned to test each treatment. The products were applied to the dorsal forearm twice daily. Topical treatment with a minimally efficacious moisturizer was used as the vehicle for each test compound and as the negative control.
# (§2) After four weeks of treatment, one 4-mm punch biopsy was taken from each treated site. The dermis was separated and snap-frozen in liquid nitrogen and stored at −80° C. until assayed. The frozen tissue was then processed for gene expression analysis. To determine gene expression levels, RNA was extracted, labeled with biotin, hybridized and analyzed using Affymetrix GeneTitan® U219 microarray plates according to the manufacturer's instructions.
# (§3) For genomics analysis, microarray sample quality was assessed using principal components analysis and MA-plots. Treatment to negative control comparisons for the microarray data were assessed using ANOVA models fitted separately for each probe set. ANOVA model hypothesis tests were evaluated using the Empirical Bayes method available in the limma R package. A p-value cutoff of 0.05 or less was consider statistically significant.
# COL1A2 = experiment: as above; assay type: in vivo, human; details: dorsal forearm twice daily, four weeks, retinol at 0.2%, Pal-KTTKS at 100 ppm, vs vehicle, p-value in brackets
# Text: as §1, §2, §3
Substance,"Collagen Productivity (Collagen/Cell) ([1]; Table 5, 1% composition in culture medium, TGF-B 5 ppm)","Collagen Productivity (Collagen/Cell) ([1]; Table 6, 1:100 dilution, TGF-B 5 ppm)","Collagen Productivity (Collagen/Cell) ([1]; Table 7, 1:100 dilution, TGF-B 5 ppm)","Collagen Productivity (Collagen/Cell) ([1]; Table 9, 1:100 dilution, TGF-b 5 ppm)",COL1A1 LFC (Log base 2 of the average Fold Change) (COL1A1),COL1A2 LFC (Log base 2 of the average Fold Change) (COL1A2)
TGF-B,5.17,4.86,4.86,5.17,–,–
palmitoyl-lys-thr-thr-lys-ser [Pal-KTTKS],–,–,–,–,−0.15 (0.44),−0.048 (0.91)
